{
  "source": "patent US6274553A",
  "about": "“Method for stabilizing peptides and freeze-dried medicinal compositions containing peptides obtained by using the method” (Japan Energy Corporation, priority 1997, dated 2001)",
  "molecules": {"B1": {"name": "hirudin variant HV1C3: Hirudin variant having the amino acid sequence shown by Sequence No. 1 (JP Laid-open No. 173798/1992) (protein)", "chain": "VVYTDCTESGQNLCLCEGSNVCGQGNKCILGSDGEKNQCVTGEGTPKPQSHNQGDFEPIPEDAYDE"}},
  "key": {"[1]": {"assay": "Storage stability of lyophilized HV1C3 at 50° C., liquid chromatography peak area (Experiment Example 1)", "assay_type": "physicochemical", "conditions": "glycine, mannitol", "method": "Hirudin variant HV1C3 having the amino acid sequence shown by Sequence NO. 1 in the Sequence Table, glycine, and mannitol were dissolved in purified water to a final concentration of 6 mg/ml (0.86 mM), 6.7 mg/ml (89 mM), and 33.5 mg/ml (184 mM), respectively. The resulting solution was divided into six equal portions. These portions were adjusted to the pH shown in Table 1 with the addition of 30 mM of tartaric acid, phosphoric acid, or Tris buffer solution. The peptide solutions for which the pH was thus adjusted filtered through a 0.22 μm membrane filter. The filtrates were charged into 6 ml vials in the amount of 1 ml for each vial. 50 such vials were prepared for each pH of the solution, totaling 300 vials. All these 300 vials were lyophilized.\nThe lyophilized samples were stored in an incubator at 50° C. and removed from the incubator after 1, 2, 4, 6, 8 weeks, respectively. 1 ml of purified water was added to each vial removed. Solutions further diluted 50-fold were subjected to liquid chromatography to measure a peak area percentage of hirudin variant HV1C3 under the conditions shown in Table 2. The amount (percentage) of the hirudin variant HV1C3 remaining in the lyophilized sample, after having been stored in the incubator, compound with the amount of the hirudin variant HV1C3 contained at the beginning of the storage was determined."}, "[2]": {"assay": "Storage stability of lyophilized HV1C3 at 60° C., pH adjusting agents (Experiment Example 2)", "assay_type": "physicochemical", "conditions": "saccharose, mannitol", "method": "Hirudin variant HV1C3, purified saccharose, and mannitol were dissolved in purified water to a final concentration of 6 mg/ml (0.86 mM), 1.6 mg/ml (4.7 mM), and 10 mg/ml (55 mM), respectively. The resulting solution was divided into five equal portions. Four of these portions were adjusted to pH 5.5 with the addition of 30 mM of acetic acid, tartaric acid, citric acid, or phosphoric acid. The peptide solutions for which the pH was thus adjusted and the peptide solution without pH adjustment were filtered through a 0.22 μm membrane filter. The filtrates were filled into 6 ml vials in the amount of 1 ml for each vial. 50 such vials were prepared for each pH of the solution, 250 vials in total. All these 250 vials were lyophilized.\nThe lyophilized samples were stored in an incubator at 60° C. and removed from the incubator after 1, 2, 3, 4, 5, 6, 7, and 8 weeks, respectively. 1 ml of purified water was added to each vial removed. Solutions further diluted 50-fold were used to measure the amount (percentage) of the hirudin variant HV1C3 remaining in the lyophilized sample in the same manner as in Experiment Example 1."}},
  "data": [
    {"molecule": "B1", "values": [
      {"measurement": "Remaining peptide (%) 1 wk", "setting": "[1]; pH 4.5, tartaric acid 30 mM", "result": 98.0, "unit": "%"},
      {"measurement": "Remaining peptide (%) 2 wks", "setting": "[1]; pH 4.5, tartaric acid 30 mM", "result": 97.7, "unit": "%"},
      {"measurement": "Remaining peptide (%) 4 wks", "setting": "[1]; pH 4.5, tartaric acid 30 mM", "result": 95.4, "unit": "%"},
      {"measurement": "Remaining peptide (%) 6 wks", "setting": "[1]; pH 4.5, tartaric acid 30 mM", "result": 94.7, "unit": "%"},
      {"measurement": "Remaining peptide (%) 8 wks", "setting": "[1]; pH 4.5, tartaric acid 30 mM", "result": 93.4, "unit": "%"},
      {"measurement": "Remaining peptide (%) 1 wk", "setting": "[1]; pH 5.5, tartaric acid 30 mM", "result": 98.6, "unit": "%"},
      {"measurement": "Remaining peptide (%) 2 wks", "setting": "[1]; pH 5.5, tartaric acid 30 mM", "result": 98.7, "unit": "%"},
      {"measurement": "Remaining peptide (%) 4 wks", "setting": "[1]; pH 5.5, tartaric acid 30 mM", "result": 97.5, "unit": "%"},
      {"measurement": "Remaining peptide (%) 6 wks", "setting": "[1]; pH 5.5, tartaric acid 30 mM", "result": 96.5, "unit": "%"},
      {"measurement": "Remaining peptide (%) 8 wks", "setting": "[1]; pH 5.5, tartaric acid 30 mM", "result": 97.0, "unit": "%"},
      {"measurement": "Remaining peptide (%) 1 wk", "setting": "[1]; pH 6.0, phosphoric acid 30 mM", "result": 98.4, "unit": "%"},
      {"measurement": "Remaining peptide (%) 2 wks", "setting": "[1]; pH 6.0, phosphoric acid 30 mM", "result": 96.4, "unit": "%"},
      {"measurement": "Remaining peptide (%) 4 wks", "setting": "[1]; pH 6.0, phosphoric acid 30 mM", "result": 95.1, "unit": "%"},
      {"measurement": "Remaining peptide (%) 6 wks", "setting": "[1]; pH 6.0, phosphoric acid 30 mM", "result": 94.5, "unit": "%"},
      {"measurement": "Remaining peptide (%) 8 wks", "setting": "[1]; pH 6.0, phosphoric acid 30 mM", "result": 93.6, "unit": "%"},
      {"measurement": "Remaining peptide (%) 1 wk", "setting": "[1]; pH 7.0, Tris buffer 30 mM", "result": 95.7, "unit": "%"},
      {"measurement": "Remaining peptide (%) 2 wks", "setting": "[1]; pH 7.0, Tris buffer 30 mM", "result": 92.0, "unit": "%"},
      {"measurement": "Remaining peptide (%) 4 wks", "setting": "[1]; pH 7.0, Tris buffer 30 mM", "result": 86.8, "unit": "%"},
      {"measurement": "Remaining peptide (%) 6 wks", "setting": "[1]; pH 7.0, Tris buffer 30 mM", "result": 72.0, "unit": "%"},
      {"measurement": "Remaining peptide (%) 8 wks", "setting": "[1]; pH 7.0, Tris buffer 30 mM", "result": 70.3, "unit": "%"},
      {"measurement": "Remaining peptide (%) 1 wk", "setting": "[1]; pH 7.0, phosphoric acid 30 mM", "result": 99.0, "unit": "%"},
      {"measurement": "Remaining peptide (%) 2 wks", "setting": "[1]; pH 7.0, phosphoric acid 30 mM", "result": 97.3, "unit": "%"},
      {"measurement": "Remaining peptide (%) 4 wks", "setting": "[1]; pH 7.0, phosphoric acid 30 mM", "result": 93.3, "unit": "%"},
      {"measurement": "Remaining peptide (%) 6 wks", "setting": "[1]; pH 7.0, phosphoric acid 30 mM", "result": 92.7, "unit": "%"},
      {"measurement": "Remaining peptide (%) 8 wks", "setting": "[1]; pH 7.0, phosphoric acid 30 mM", "result": 90.0, "unit": "%"},
      {"measurement": "Remaining peptide (%) 1 wk", "setting": "[1]; pH 8.0, Tris buffer 30 mM", "result": 81.9, "unit": "%"},
      {"measurement": "Remaining peptide (%) 2 wks", "setting": "[1]; pH 8.0, Tris buffer 30 mM", "result": 58.0, "unit": "%"},
      {"measurement": "Remaining peptide (%) 1 wk", "setting": "[2]; pH 5.5, acetic acid 30 mM", "result": 98.3, "unit": "%"},
      {"measurement": "Remaining peptide (%) 2 wks", "setting": "[2]; pH 5.5, acetic acid 30 mM", "result": 95.6, "unit": "%"},
      {"measurement": "Remaining peptide (%) 3 wks", "setting": "[2]; pH 5.5, acetic acid 30 mM", "result": 94.2, "unit": "%"},
      {"measurement": "Remaining peptide (%) 4 wks", "setting": "[2]; pH 5.5, acetic acid 30 mM", "result": 93.3, "unit": "%"},
      {"measurement": "Remaining peptide (%) 5 wks", "setting": "[2]; pH 5.5, acetic acid 30 mM", "result": 92.0, "unit": "%"},
      {"measurement": "Remaining peptide (%) 6 wks", "setting": "[2]; pH 5.5, acetic acid 30 mM", "result": 91.9, "unit": "%"},
      {"measurement": "Remaining peptide (%) 7 wks", "setting": "[2]; pH 5.5, acetic acid 30 mM", "result": 91.4, "unit": "%"},
      {"measurement": "Remaining peptide (%) 8 wks", "setting": "[2]; pH 5.5, acetic acid 30 mM", "result": 90.6, "unit": "%"},
      {"measurement": "Remaining peptide (%) 1 wk", "setting": "[2]; pH 5.5, citric acid 30 mM", "result": 97.4, "unit": "%"},
      {"measurement": "Remaining peptide (%) 2 wks", "setting": "[2]; pH 5.5, citric acid 30 mM", "result": 95.8, "unit": "%"},
      {"measurement": "Remaining peptide (%) 3 wks", "setting": "[2]; pH 5.5, citric acid 30 mM", "result": 94.4, "unit": "%"},
      {"measurement": "Remaining peptide (%) 4 wks", "setting": "[2]; pH 5.5, citric acid 30 mM", "result": 93.3, "unit": "%"},
      {"measurement": "Remaining peptide (%) 5 wks", "setting": "[2]; pH 5.5, citric acid 30 mM", "result": 92.4, "unit": "%"},
      {"measurement": "Remaining peptide (%) 6 wks", "setting": "[2]; pH 5.5, citric acid 30 mM", "result": 91.6, "unit": "%"},
      {"measurement": "Remaining peptide (%) 7 wks", "setting": "[2]; pH 5.5, citric acid 30 mM", "result": 90.8, "unit": "%"},
      {"measurement": "Remaining peptide (%) 8 wks", "setting": "[2]; pH 5.5, citric acid 30 mM", "result": 89.8, "unit": "%"},
      {"measurement": "Remaining peptide (%) 1 wk", "setting": "[2]; pH 5.5, phosphoric acid 30 mM", "result": 77.9, "unit": "%"},
      {"measurement": "Remaining peptide (%) 2 wks", "setting": "[2]; pH 5.5, phosphoric acid 30 mM", "result": 66.6, "unit": "%"},
      {"measurement": "Remaining peptide (%) 3 wks", "setting": "[2]; pH 5.5, phosphoric acid 30 mM", "result": 61.4, "unit": "%"},
      {"measurement": "Remaining peptide (%) 4 wks", "setting": "[2]; pH 5.5, phosphoric acid 30 mM", "result": 58.1, "unit": "%"},
      {"measurement": "Remaining peptide (%) 5 wks", "setting": "[2]; pH 5.5, phosphoric acid 30 mM", "result": 57.3, "unit": "%"},
      {"measurement": "Remaining peptide (%) 6 wks", "setting": "[2]; pH 5.5, phosphoric acid 30 mM", "result": 57.6, "unit": "%"},
      {"measurement": "Remaining peptide (%) 1 wk", "setting": "[2]; pH 5.5, tartaric acid 30 mM", "result": 98.4, "unit": "%"},
      {"measurement": "Remaining peptide (%) 2 wks", "setting": "[2]; pH 5.5, tartaric acid 30 mM", "result": 97.6, "unit": "%"},
      {"measurement": "Remaining peptide (%) 3 wks", "setting": "[2]; pH 5.5, tartaric acid 30 mM", "result": 95.9, "unit": "%"},
      {"measurement": "Remaining peptide (%) 4 wks", "setting": "[2]; pH 5.5, tartaric acid 30 mM", "result": 95.2, "unit": "%"},
      {"measurement": "Remaining peptide (%) 5 wks", "setting": "[2]; pH 5.5, tartaric acid 30 mM", "result": 92.4, "unit": "%"},
      {"measurement": "Remaining peptide (%) 6 wks", "setting": "[2]; pH 5.5, tartaric acid 30 mM", "result": 92.2, "unit": "%"},
      {"measurement": "Remaining peptide (%) 7 wks", "setting": "[2]; pH 5.5, tartaric acid 30 mM", "result": 91.9, "unit": "%"},
      {"measurement": "Remaining peptide (%) 8 wks", "setting": "[2]; pH 5.5, tartaric acid 30 mM", "result": 90.6, "unit": "%"},
      {"measurement": "Remaining peptide (%) 1 wk", "setting": "[2]; without pH adjustment", "result": 96.9, "unit": "%"},
      {"measurement": "Remaining peptide (%) 2 wks", "setting": "[2]; without pH adjustment", "result": 94.2, "unit": "%"},
      {"measurement": "Remaining peptide (%) 3 wks", "setting": "[2]; without pH adjustment", "result": 92.3, "unit": "%"},
      {"measurement": "Remaining peptide (%) 4 wks", "setting": "[2]; without pH adjustment", "result": 90.9, "unit": "%"},
      {"measurement": "Remaining peptide (%) 5 wks", "setting": "[2]; without pH adjustment", "result": 89.9, "unit": "%"},
      {"measurement": "Remaining peptide (%) 6 wks", "setting": "[2]; without pH adjustment", "result": 88.2, "unit": "%"},
      {"measurement": "Remaining peptide (%) 7 wks", "setting": "[2]; without pH adjustment", "result": 87.2, "unit": "%"},
      {"measurement": "Remaining peptide (%) 8 wks", "setting": "[2]; without pH adjustment", "result": 86.1, "unit": "%"}
    ]}
  ]
}
